Data published in US7427404.

Biological target: monoclonal anti-S1 antibody 1B7
Assay: competition RIA: 1B7 coated on plate, 125I-PT displaced by unlabelled toxin

## PT-9K (from UniProt P04978 28-226; P04979 29-227; P0A3R5 43-152; P04981 35-133)
  Ka: 8.9e+08 M⁻¹
